Patent publication US5693758A, “Immunoglobulin E competitor” (501 Research Corporation Limited, priority 1987, dated 1997)

B1: rE2-3: recombinant IgE peptide Asp 218-Pro 439 (CH2 and CH3) (protein, UniProt P01854 218-439, looked up, fragment)
chain: SAYLSRPSPFDLFIRKSPTITCLVVDLAPSKGTVNLTWSRASGKPVNHSTRKEEKQRNGTLTVTSTLPVGTRDWIEGETYQCRVTHPHLPRALMRSTTKTSGPRAAPEVYAFATPEWPGSRDKRTLACLIQNFMPEDISVQWLHNEVQLPDARHSTTQPRKTKGSGFFVFSRLEVTRAEWEQKDEFICRAVHEAASPSQTVQRAVSVNPGLAGGSAQSQRAP
B2: rE2'-3': recombinant IgE peptide Gln 301-Arg 376 (protein, UniProt P01854 301-376, looked up, fragment)
chain: VTHPHLPRALMRSTTKTSGPRAAPEVYAFATPEWPGSRDKRTLACLIQNFMPEDISVQWLHNEVQLPDARHSTTQP
B3: rE2: recombinant IgE peptide Asp 218-Val 336 (CH2) (protein, UniProt P01854 218-336, looked up, fragment)
chain: SAYLSRPSPFDLFIRKSPTITCLVVDLAPSKGTVNLTWSRASGKPVNHSTRKEEKQRNGTLTVTSTLPVGTRDWIEGETYQCRVTHPHLPRALMRSTTKTSGPRAAPEVYAFATPEWPG

Key:
[1] = system: Fc receptors of mast cells; conditions: cited from earlier work; for blocking activity: reported by Bennich
[2] = system: FcER2 positive RPMI 8866 B cells; experiment: Indirect immunofluorescence binding of rE peptides to RPMI 8866 B cells (FACScan); set-up: species or system human; conditions: for % positive cells: RPMI 8866 B cells, indirect immunofluorescence, 0.1-200 μg/ml ligand, 40 min 4° C., mean ±S.D. of 9 experiments; for binding to FcER2 positive RPMI 8866 B cells (in words): further indirect immunofluorescence studies
Method: RPMl 8866 cells were incubated with different concentrations of rE peptides and indirect immuno-fluorescence was performed.
For indirect immunofluorescence the results of which are summarised in Table VII, 0.5×10^6 RPMI 8866 cells (>99% FcER2 positive) in staining buffer (RPMI 1640 - 2.5% fetal bovine serum, containing 0.01% azide) were incubated with various concentrations (0.1-200 μg/ml) of purified rE fragments or native IgE(PS) for 40 minutes at 4° C. After washing, the cells were incubated for 30 minutes at 4° C. with the appropriate fluorescein isothiocyanate (FITC)-conjugated anti-Fc mAB or with an affinity-purified goat anti-human IgE antibody (10 μg/ml). After extensive washing, the percentage of cells binding IgE or the rE fragments was evaluated by a FACScan (Becton Dickinson, Mountain View, Calif.).

Row | Molecule | blocking activity [1] | specific activity ([1]; reported) | % positive cells [2] [%] | binding to FcER2 positive RPMI 8866 B cells (in words) [2]
1 | Asp-Ser-Asn-Pro-Arg (DSNPR; printed: Asp-Ser-Asn-Pro-Arg) | neither of the peptides Asp-Ser-Asp-Pro-Arg nor Asp-Ser-Asn-Pro-Arg has any blocking activity |  |  | 
2 | Asp-Ser-Asp-Pro-Arg (DSDPR; printed: Asp-Ser-Asp-Pro-Arg) [HEPP, Human Immunoglobulin E Polypeptide, pentapeptide from IgE heavy chain 330 to 334] | neither of the peptides Asp-Ser-Asp-Pro-Arg nor Asp-Ser-Asn-Pro-Arg has any blocking activity | low |  | 
3 | B1 |  |  | 3 ± 1 | no detectable binding
4 | B2 |  |  | 2 ± 1 | no detectable binding
5 | B3 |  |  | 2 ± 1 | no detectable binding
